The results in this text go back to patent publication US20220380776A1.

pKd: −log10 of the molar value.

This assay concerns the target CD46 (UniProt P15529). The assay is described as follows: Kd, method not stated (column head 'Kd (Oleks)').
UniProt P15529, sequence (P15529 35-343 limits assumed): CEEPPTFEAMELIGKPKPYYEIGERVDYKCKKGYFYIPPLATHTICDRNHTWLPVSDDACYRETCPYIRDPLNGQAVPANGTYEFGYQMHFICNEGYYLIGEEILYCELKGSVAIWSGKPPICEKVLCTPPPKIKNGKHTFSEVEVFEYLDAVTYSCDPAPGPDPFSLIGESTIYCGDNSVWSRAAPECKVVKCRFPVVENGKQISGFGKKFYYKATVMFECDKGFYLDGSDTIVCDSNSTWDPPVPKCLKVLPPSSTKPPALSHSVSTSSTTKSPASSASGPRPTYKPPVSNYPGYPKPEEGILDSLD

On to Ad35 knob A8: Ile192Val Ile256Val, for which the negative logarithm of the Kd (pKd) is 7.86.
